Laboratory results: the nanobody polyreactivity screen of Harvey et al. (2022)

Assay: yeast display, Sf9 membrane polyspecificity reagent, FACS + sequencing; frameworks hold sequencing errors
Outline: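 A nanobody's polyreactivity label depends on the gate it was sorted from. Yeast display cells were stained with 10% biotinylated, detergent-solubilized Sf9 membrane reagent for 1 hour at 4 °C, enriched on streptavidin microbeads and sorted by FACS. The low and high (top ~1%) gates were set on anti-HA fluorescence for expression and streptavidin fluorescence for reagent binding.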

| Sequence | polyreactivity (PSR sort gate) |
| --- | --- |
| QVQLVESGGGLVQAGGSLRLSCAASGRIFALYAMGGYRQAPGKERELVAAISIRAGSTYYADSAKGRFTISRDNAKNTVYLQMNSLKPEDTAVYYCATKGWVSTSYYYRPYGYWGQGTQVTVSS | high polyreactivity |
| QVQLVESGGGLVQAGGSLRLSCAASGSTIDINTKGWYRQAPGKEREFVAAITDSDDSTYYADSVKGRFTISRDNAKNTVYLQMNSLKPEDTAVYYCATDPDYVLYRTAYYEYDYWGQGTQVTVSS | low polyreactivity |
| QFQLVESGGGLVQAGGSLRLSCAASGRTFKYNAMGWYRQAPGKERELVAAISSTGSTNYADSVKGRFTISRDNAKNTVYLQMNSLKPEDTAVYYSAARGLPSNYYYYVHGYIMYYWGQGTQVTVSS | low polyreactivity |
| QVQLLESGGGLVQAGGSLRLSCAASGSTFTNYAMGWYRQAPGKERELVAAITSGGSTYYADSVKGRCTISRDNAKNTVYLQMNSLKPEDTAVYYCNAVYFSEYDSWGQGTLVTVSS | low polyreactivity |
| QVQLVESGGGLVQAGGSLRFSCAASGGIYYLYAMGWYRQAPGKEREFVAAISSSGGSTNYADSVMGRFTISRDNAKNTVYLQMNSLKRDDSAVYYCNAVDWKQEVGGWVEYDYWGQGTQVNVSS | high polyreactivity |
| QVQLVESGGGLVQAGGSLRLSCAASGSIFHIYAMGWYRQAPGKERELVAAMTYADSVKGRFTISRDNAKNTVYLQMNSLKPEDTAVYYCNADNWPRIHGSAYDYWGQGTQVTVSS | low polyreactivity |
| QVQLVESGGGLVQAGGSLRLICAASGLTFASYAMGWYRQAPGKERELVAAISSSGRTYYADSVKGRFTISRDNAKNTVYLQMNSLKPEDTAVYYCATRGLSRYYDYYYWGQGTQVTVSS | high polyreactivity |
| QVQLVESGGGLVQAGASLRLSCAASGFIFGGNAMGWYRQAPGKERELVAAISTTGGRTYYADSVKGRFTISRDNAKNTVYLQMNSRKPEDTAVYYCNAGYDSYCRYYWYWYSFNYWGQGTQVNVSS | high polyreactivity |
| QVQLVESGGALVQAGGSLRLTCAASGSTFWDNSMGWYRQAPGKEREFVADITAIGGTTYYADSVKGRFTISRDNAQNTVYLQMNSLKPEDTAVYYCAADWTTYGFSYFSIYYYWGQGTQVTVSS | low polyreactivity |
| QVQLVESGGGLVQAGGSLRLSCAASGTFSSYAMGWYRQAPGKERELVAAITNGGNTNYADSVKGRFTISRDNAKNTVYLQMNSLKPEDTAVYYCNARYGNESQGWEDYWGQGTQVTVSS | low polyreactivity |
| QVQLVESGGVLVQAGGSLRLSCASSGSTFTKYAMGWYRQAPGKERELVAAISRSGGGTYYADSVKGRFTISRDNAKNTVYLQMNSLKPEDTAVYYCNAALFRGAQFDYWGQGTQVTVSS | high polyreactivity |
| QVQLVESGGGLVQAGGSLRLSCAASGSNIYTYAMGWYRHAPGKERELVAAISSGGSTTYADSVKGRFTISRDNAKNTVYLEMISLKPEDTAVYYCAADGASRALYDYWGQGTQVTVSS | high polyreactivity |
| QVQLLESGGGLVQSGGSLRLTCAASGFTFRGYAMGWYRQAPGKERELVAAISWNGGRTYADSVKGRFTITRDNAKYTVYLQMNSLKPEDTAVYYCNAVKFGATAYDYWGQGTQVTVSS | high polyreactivity |
| QVQLVESGGGLVQAGGSLPLSCAASGLTIFVNAMGWYRQAPGKERELVATISGGGSTYYADSVKGRFTISRDNAKNTVYLQMNSLKREDTAVYYCNAADVGGPWWYPYTYNYWGQGTQVTVSS | low polyreactivity |
| QVHLVESGGGLVQAGGILRLSWASSGFIFPRYAMGSYRQAPGKERELVAGITSRGTGTYYADSVKGRFTISRDNAKNTVYLQMNSLKQEDTAVYYCARLSTKPLPYDDWGQGTQVTVSS | high polyreactivity |
| QVQLVESGGGLVQAGGSLRLSSAASGRIIDDNTMGWYRQAPGKERELVAAISVSGGRTYYADSVKGRFTISRDNAKNTVYLQMNSLNPEDTAVYFCAAARGGEYWGQGTQVTVSS | high polyreactivity |
| QVQLEESGGCLVQAGGSLRLSCAASGRIITSNDMGWYRQAPGKERELVAAISKSGGRTYYADSVKGRFTISRDNAKNTVYLQMNSLKPEDTAVYYCAKDNYWGQGTQVTVSS | high polyreactivity |
| QDQLVESGGGLVQAGGSLRLSCAASVITFDLYAMGWYRQAPGKERELVAAISISSTSTYYADSVKGLFTISRDNAKNTVYLQMISLKPEDTAGYYCNAVPSSKTFWFDYWGLGTQVTVSS | low polyreactivity |
| QVQLVESGGGLVQAGGSLRLSCAASGSIFGVYAMGWYRQAPGKERELVAAISSRGSSTYYADSVKGRFTISRDNAKNTVYLQMNSLKPEDTAVYYCAARPGIRSYPPGYGYWGQGTQVTVSS | high polyreactivity |
| QVQLVESGGGLVQAGGSLRLSCAASGIIFPPYTMGWYRQAPGKERELVAAINTRGSRTYYADSVKGRFTISRDNAKNTVYLQMNSLKPEDTAVYYCAADVWWSTTYDYWGQGTQVTVSS | high polyreactivity |
| QVQLVESGGGLVQAGGSLRLSCAASGFTFSFYAMGWYRQAPGKERELVATISSGGSTTYADSVKGRFTISRDNAKNTVYLQMNSLKPEDTEVYYCAARYGRVRNYRYDYWGQGTQVTVSS | high polyreactivity |
| QDQLVESGGGLVQAGGSLRLSCAASVSIFGYYAMGWYRQAHGKERELVADITSSGSTYYADSVKGRFTISRDNAKNTVYLQMNSLKPEDTAVYYCAADQYYLGSIDGFEYWGQGTQVTVSS | low polyreactivity |

| Sequence | polyreactivity (PSR sort gate) |
| --- | --- |
| QVQLVESGGGLVQAGGSLRLSCAASGITFGYNAMGWYRQAPGKERELVASISYSGDSTYYADSVKGRFTISRDNAKNTVYLQMNSLKPEDTAVYYCNVRNRPGGEINDYDYWGQGTQVTVSS | low polyreactivity |
| QVQLVESGGGLVEEGGSLRLSCAASGSIFSANALGWYRQAPGKERELVACITGDGSTNYADSVKGRFTISRDNAKNTVYLQMNSLKPEDTAVYYCAADIGSWYDYWGQGTQVTVSS | low polyreactivity |
| QVQLVESGGGLVHAGGSLRLSCAASGRTFGIYTMGWYRQAPGKERELVASTYYADSVKGRFTISRDNAKNTVYLQMNSLKPEDTAVYYCNVERLKKSQVWYGYPNDYWGQGTQVTVSS | low polyreactivity |
| QVQLVESGGGLVQAGGSLRLSCAASGFIFRRYAMGWYRQAPGKERELVAAISWRSGSTYYADSVKGRFTISRDNAKNTVYLQMNSLKPEDTAVYYCAAKDQATYQLNYWGQGTQVTVSS | high polyreactivity |
| QVQLVESGGGLVQAGGSLRLSCAASGSIFYFYTMGWYRQAPGKERELVASITYSGGRTYYADSVKGRFTISRDNAKNSVYLQMNSLKPEDTAVYYCAVRGYRRYWGQGTQVTVSS | high polyreactivity |
| QVQLVESGGGLVQAGGSLRLSCAASGSTFDTNAMGWYRQAPGKERELVATITSIGGSKYADSVKGRFTISRDNAKNTVYLQMNSLIPEDTAVYYCATDYVEIDYDYDYWGQGTQVSVSS | low polyreactivity |
| QVQLVESGGGLVQAGGRLRLSCAAAGSTFDGNAMGWYRQAPGKERELVADIDSIGGSTYYADSVKGRFTISRDNAKNTVYLQMNSLKPEDTAVYYCADRRFDTALVLYDYWGQGTQVTVSS | low polyreactivity |
| QVQLVESGGGLVQAGGSLRISCAASGRTFGPNAMGWYIKAPGKERELVAAIRYSGGSTYYADSVKGRFTISRDKAKNTVYLQMNSLKPEDTAVYYCAADYVSYVGERGTLYVRYDYWGQGTQVTVSS | high polyreactivity |
| QVQIVESGGGLVQAGGSLRLSCAPSGRIFRKYAMGWYRQAPGKERELVAAISVGGGSTRYADSVKGRFTISRDNAKNTVYLQMNSLKPEDTAVYYCAVKWFSGGYDYWGQGTQVNVSS | low polyreactivity |
| QVQLVESGGGFVQAGGSLRLSCAASGRTYTLNAMRWYRQAPGKERELVAAITWGAGSTYYADSVKGRFTISRDNAKNTVYLQMNSLKPEDTAVYYCAARFHGAYYRYRSPSMYYWGQGTQVTVSS | high polyreactivity |
| QVQLVESGGGLVQAGGSLRLSCAASGSIFVTYAMGWYRQAPGKERELVASITLSGGSTYYADSVKGRFTISRDNAKNTVYFQKNSLKPEDTEVYYCNAEGTSWTSTRFDYWGQGTQVTVSS | high polyreactivity |
| KVQLVESGGGLVQAGGSLRLSCAASGSTFIGNAMGWYRQAPGKERELVAAISRTGGSTYADSVKGRFTISRDNAKNTVYLQMNSLKPEDTAVYYCNAVRWYYDYWGQGTQVTVSS | high polyreactivity |
| QVQLVESGGGLVQAGGSLRLSCAASGRTFYRYAMGCYRQAPGKERELVAAISWRGGSTNYADSVKGRFTISRDNAKNTVYLQMNSLKPEDTAVYYCNAKFFLPATTRYYYWGQGTQVTVSS | high polyreactivity |
| QVQLVESGGGLVQAGGSLSLSCAASGLTFPKYAMGWYRQAPGKERELVDRISYSGASTYYADSVKGRFTISRDNAKNTVYLQMNSLKPEDTAVYYCAARIYRVYYVDFAPYYYWGQGTQVTVSS | high polyreactivity |
| QVQLVESGGGLVQAGGSLRLSCAASGRTFGRYAMGWYRQAPGKERELVATITSGGSTNYADSVKGRFTISRDNAKNTVYLQMNSLKPEDTAVYYCAAEFSPSRWAYSEGALRYHYWGQGTQVTVSS | low polyreactivity |
| QVQHVESGGGLVQAGGSLRLSCAASGRTFVYYVMGWYRQAPGKESELVAAITGSGDSTYYADSVKGRFTISRDNAKNNVYLQMNSLKPEDTAVYYCAARRGTRYYDFGYYYWGQGTKVTVSS | high polyreactivity |
| QVQLQESGGRLVQADGSLRLSCAASGSIFGYYYMGWYRQAPGKDRELVATINICGITNYADSVKGRFTISRDNAKNTVYLQMNSLKPDDTAVYYCAADEYAQRDLGYWGQGTQVTVSS | low polyreactivity |
| QVQLVESGGGLVQAGGSLRLSCAASGLIFYPYAMGWYRQAPGKERELVAGISSSGDSTYYADSVKGRFTISRDNAKNTVYLQMNSLKPEDNAVYYCNTGWDPYGYDYWGQGTQVTVSS | low polyreactivity |
| QVQLVESGGGLVQAGGSLRLSCAASGRIFHFNTMGWYRQAPGKERELVAAITSSGGSTNYADSVKGRFTISRDNAKNTVYLQMNSLKPEDTAVYYCNADTGAADYFDFDYWGQGTQVTVSS | low polyreactivity |
| QVQLVESGGGLVQAGGSLRLSCAASGLTLQRYTMGWYRQAPGKERELVAAISRSGGGTYYADSVKGRFTISRDNAKNTVYLQMNSLKPEDTAVYYCNKVRGAVPWFDMDYWGQGTQVTVSS | high polyreactivity |
| QVQLVESGGGLVQAGGILRLSCAASGITFKPYGMGWYRQAHGKESELVADITSGGITYYADSVKGRFTISRDNAKNTVYLQMNSLIAEDTAVYFCATGDLFVYYWGYVVRLYDFWGQGTQVTVSS | low polyreactivity |
